Results from US20250188194A1, “Method of treatment” (Nucleus Therapeutics Pty Ltd, priority 2021, published 2025).
“Also recorded” adds a separate entry of the source.

Assays:
[1] = test system: differentiated PLB-985 cells; experiment: Quantifying extracellular DNA by SYTOX Green stain after PMA stimulation; assay type: cell-based, human; conditions: one hour pre-treatment with 10 μM DX1, 300 nM PMA two hours, plate reader; N=3
Experimental: FIGS. 2A-2D. DAPI and SYTOX™ Green stains support the conclusion that DX1inhibits chromatin decondensation and DNA release by differentiated PLB-985 cells stimulated with PMA. (2A) Chromatin decondensation in differentiated PLB-985 cells after stimulation with PMA±a one hour pre-treatment with 10 μM DX1 was visualized by DAPI stain. Left panel: Control cells with decondensed DAPI stain after PMA stimulation. Right panel: DX1-treated cells retaining condensed DAPI signal after PMA stimulation. Bar: 25 μm. (2B) Quantification of the percentage of differentiated PLB-985 cells with decondensed DAPI stain after PMA stimulation. […] (2C) DNA release by differentiated PLB-985 cells after stimulation with PMA±a one hour pre-treatment with 10 μM DX1 was visualized by addition of the impermeant DNA stain SYTOX™ Green. Representative images are shown. Bar: 25 μm. (2D) SYTOX™ Green signal in wells containing differentiated PLB-985 cells stimulated with PMA±a one hour pre-treatment with 10 […] was quantified by plate reader. […]
SYTOX™ Green is an impermeant fluorescent DNA stain that facilitates visualization of DNA released in NETosis. Differentiated PLB-985 cells treated with control or 10 μM DX1 and stimulated with PMA were exposed to SYTOX™ Green, and fluorescence was visualized under fluorescence microscopy and quantified by plate reader. […]

mouse neutrophils = experiment: Mouse neutrophils NETosis visualization (MPO, H3Cit, PAD4 immunostaining); assay type: cell-based; conditions: 10 μM DX1 30 minutes, N=4
Experimental: (§1) Neutrophils obtained from thioglycollate-treated mice and directly plated onto 20-well plates were treated with control media or media containing 10 μM DX1 for 30 minutes, and then observed for four hours, after which cells were fixed and immunostained for markers of NETs including myeloperoxidase (MPO), H3Cit, and peptidylarginine deiminase 4 (PAD4). The percentage of NETs released per 100 cells was determined by visualization on confocal microscopy and analyzed by ImageJ (NIH).
as §1, with “stimulated with PMA for induction of NOX-dependent NETosis” for “observed”, “MPO,” for “myeloperoxidase (MPO),”, “PAD4.” for “peptidylarginine deiminase 4 (PAD4).”, “confocal fluorescence” for “confocal”, “(NIH). […]” for “(NIH).”
as §1, with “stimulated with a calcium ionophore (ionomycin, IM) for induction of NOX-independent NETosis” for “observed”, “MPO,” for “myeloperoxidase (MPO),”, “PAD4.” for “peptidylarginine deiminase 4 (PAD4).”, “confocal fluorescence” for “confocal”
All mouse work was conducted under a protocol approved by Monash University's Animal Ethics Committee. […] Cells were fixed in periodate-lysine-paraformaldehyde (PLP) overnight, immunostained for markers of NETs including myeloperoxidase (MPO, #AF3667 R&D Systems, MN, USA), H3Cit, and PAD4 (#AB128086, abcam), mounted in DAPI ProLong™ Gold (Molecular Probes, Thermo Fisher Scientific) and NETs were visualized by confocal fluorescence microscopy with a Nikon Ti-E inverted microscope (Nikon Instruments Inc, Melville, NY, USA). […]

MPO immunized mice = experiment: Mouse model of ANCA associated vasculitis; assay type: in vivo; conditions: one or two doses of DX1 at 25 mg/kg, assessed day 20, versus MPO immunized control
Experimental: FIG. 9. Graphic depiction of an experiment testing the impact of DX1 in a 20-day mouse model of ANCA vasculitis.
FIGS. 10A-10D. […] Mice were treated as depicted in FIG. 9. Glomerular segmental necrosis, macrophages, neutrophils, and CD4+ T-cells was evaluated in control and MPO-immunized mice that subsequently were treated with or without one or two doses of DX1.
Mice receiving two doses of DX1 received their second dose at day 18. Mice were culled for assessment at day 20.
Mice were separated into 4 groups: Ova control (n=4); MPO immunized no treatment with DX1 (n=8); MPO immunized and 1 dose of DX1 at 25 mg/kg (n=8) and; MPO immunized and 2 doses of DX1 at 25 mg/kg.

B1: DX1: 3E10 derivative, a di-scFv having the sequence SEQ ID NO: 38; nuclear-penetrating anti-DNA binding protein (protein)
scFv: DIQMTQSPSSLSASLGDRATITCRASKTVSTSSYSYMHWYQQKPGQPPKLLIKYASYLESGVPSRFSGSGSGTDFTLTISSLQPEDAATYYCQHSREFPWTFGGGTKVEIKTVDAAPGGGGSGGGGSGGGGSEVQLVESGGGLVQPGGSLRLSCAASGFTFSNYGMHWVRQAPGKGLEWVSYISSGSSTIYYADSVKGRFTISRDNAKNSLYLQMNSLRAEDTAVYYCARRGLLLDYWGQGTTVTVSSASTKGPSVFPLAPLESTGSDIQMTQSPSSLSASLGDRATITCRASKTVSTSSYSYMHWYQQKPGQPPKLLIKYASYLESGVPSRFSGSGSGTDFTLTISSLQPEDAATYYCQHSREFPWTFGGGTKVEIKTVDAAPGGGGSGGGGSGGGGSEVQLVESGGGLVQPGGSLRLSCAASGFTFSNYGMHWVRQAPGKGLEWVSYISSGSSTIYYADSVKGRFTISRDNAKNSLYLQMNSLRAEDTAVYYCARRGLLLDYWGQGTTVTVSS
modifications: DX1 sequence
SYTOX Green signal relative to control [1]: 0.40±0.01 | percentage of NETs, unstimulated neutrophils (mouse neutrophils; no stimulus, four hours, control 3.5%±1.0): 4.0%±1.5 | percentage of NETs, ionomycin (IM) stimulation (NOX-independent NETosis) (mouse neutrophils; then IM 4 μM four hours, control 15.5%±3.1): 2.3%±0.8 | percentage of NETs, PMA stimulation (NOX-dependent NETosis) (mouse neutrophils; then PMA four hours, control 36.3%±11.1): 8.3%±2.7 | glomerular segmental necrosis, macrophages, neutrophils and CD4+ T-cells (glomerular inflammation and pathology) (MPO immunized mice): significantly reduced glomerular inflammation and pathology; also recorded: significantly reduced amounts of all of the signs of glomerular inflammation
